Paper PMC6536502, “Structural insights into DNA recognition by AimR of the arbitrium communication system in the SPbeta phage” (Cell Discovery, 2019)

Key:
Test in all cases: EMSA; EMSA: 25 mM Tris-HCl pH 8.0, 150 mM NaCl, 5 mM MgCl2, 5 mM DTT, 0.1 mg/ml BSA, 10% glycerol, 50 ug/ml salmon sperm DNA, 4 C, 15 min; smFRET: 20 mM phosphate pH
Conditions in all cases: protein: recombinant; tags: 6xHis removed by drICE; chain copies: 2
AimR N30A = biological target: T1, AimR N30A (Bacillus phage SPbeta, UniProt O64094 1-386, N30A)
T1 sequence: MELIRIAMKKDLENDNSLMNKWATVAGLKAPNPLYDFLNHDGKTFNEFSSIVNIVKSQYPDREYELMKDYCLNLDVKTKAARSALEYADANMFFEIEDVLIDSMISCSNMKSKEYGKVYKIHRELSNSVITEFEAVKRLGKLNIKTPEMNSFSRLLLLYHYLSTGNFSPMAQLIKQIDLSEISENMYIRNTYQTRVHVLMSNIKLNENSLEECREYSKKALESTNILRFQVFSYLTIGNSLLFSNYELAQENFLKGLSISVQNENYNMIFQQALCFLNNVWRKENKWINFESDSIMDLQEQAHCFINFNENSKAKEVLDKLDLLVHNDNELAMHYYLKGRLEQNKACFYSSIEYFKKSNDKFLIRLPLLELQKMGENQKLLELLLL

AimR K120D = biological target: T2, AimR K120D (Bacillus phage SPbeta, UniProt O64094 1-386, K120D)
T2 sequence: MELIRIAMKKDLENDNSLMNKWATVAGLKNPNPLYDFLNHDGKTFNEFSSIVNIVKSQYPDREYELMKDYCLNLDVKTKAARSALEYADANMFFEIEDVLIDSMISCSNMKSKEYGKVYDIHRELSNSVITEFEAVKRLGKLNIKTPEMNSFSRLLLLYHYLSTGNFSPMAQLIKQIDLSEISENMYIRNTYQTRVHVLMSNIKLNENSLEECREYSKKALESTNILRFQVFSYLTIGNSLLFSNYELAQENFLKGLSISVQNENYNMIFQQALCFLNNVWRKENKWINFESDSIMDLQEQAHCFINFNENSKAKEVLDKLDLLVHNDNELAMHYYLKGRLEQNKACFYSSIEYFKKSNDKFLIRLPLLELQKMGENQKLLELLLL

AimR K77D = biological target: T3, AimR K77D (Bacillus phage SPbeta, UniProt O64094 1-386, K77D)
T3 sequence: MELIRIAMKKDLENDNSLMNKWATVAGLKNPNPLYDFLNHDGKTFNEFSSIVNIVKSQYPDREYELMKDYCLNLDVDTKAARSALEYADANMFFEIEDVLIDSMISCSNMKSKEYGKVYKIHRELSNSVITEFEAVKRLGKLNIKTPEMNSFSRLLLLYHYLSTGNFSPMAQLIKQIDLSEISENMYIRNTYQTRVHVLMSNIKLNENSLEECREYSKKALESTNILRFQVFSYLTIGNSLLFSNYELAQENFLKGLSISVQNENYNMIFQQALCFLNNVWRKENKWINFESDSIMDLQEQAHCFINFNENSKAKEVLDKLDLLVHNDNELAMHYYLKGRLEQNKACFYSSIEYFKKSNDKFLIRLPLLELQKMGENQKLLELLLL

Measured: binding result

B1: 31 bp aimX-upstream palindromic DNA (dsDNA)
DNA 1: ACTTAAATATTAGGTTTTAATAACATCTAGT
DNA 2: ACTAGATGTTATTAAAACCTAATATTTAAGT
binds: AimR N30A | AimR K120D | AimR K77D
